# Test results taken from patent publication US20200157194A1 (Regeneron, published 2020).
# Numbering of substitutions follows the chain as printed.
# T1: human GREM1 (hGREM1-His; SEQ ID NO: 595) (human, UniProt O60565 25-184)
# T1 construct: also called biotin-hGREM1-His; recombinant human GREM1 protein
# T1 sequence: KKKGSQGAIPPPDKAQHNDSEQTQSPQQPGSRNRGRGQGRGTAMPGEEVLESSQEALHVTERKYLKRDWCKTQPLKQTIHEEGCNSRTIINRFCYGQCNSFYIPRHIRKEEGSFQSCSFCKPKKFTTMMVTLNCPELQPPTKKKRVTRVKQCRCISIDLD
# T2: recombinant human GREM1 (hGREM1-His; C-terminal 10His tagged, R&D, #5190-GR) (human, UniProt O60565 25-184, limits assumed)
# T2 sequence: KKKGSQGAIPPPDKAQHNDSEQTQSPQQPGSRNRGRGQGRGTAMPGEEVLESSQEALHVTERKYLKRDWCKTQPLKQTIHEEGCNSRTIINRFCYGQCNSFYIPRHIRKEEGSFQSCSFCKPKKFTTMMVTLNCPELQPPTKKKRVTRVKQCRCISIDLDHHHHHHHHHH
# B1: H4H6260P (antibody, human IgG4, V domains shown)
# VH: QVQLVESGGGVVQPGRSLRLSCAASGFTFSTYGMHWVRQAPGKGLEWVAIIWYDGSNYYYADSVKGRFTISRDNSKNTLYLQMNSLRAEDTAVYYCAREDRNDVFDIWGQGTMVTVSS
# VL: EIVLTQSPATLSLSPGERATLSCRASQSVSSFLAWYQQKPGQAPRLLIYDSSNRATGIPARFSGSGSGTDFTLTISSLEPEDFAVYYCQQLSNWPPITFGQGTRLEIK
# notes: H4H prefix = human IgG4 Fc
# B2: H4H6248P (antibody, human IgG4, V domains shown)
# VH: QVQLVESGGGVVQPGRSLRLSCAASGFTFSNYGMHWVRQVPGKGLEWVAVIWYDGSNKYYADSVKGRFTISRDNSKNTLYLQMNSVRAEDTAVYYCARDDYGDSPGFDYWGQGTLVTVSS
# VL: EIVMTQSPATLSVSPGERATLSCRASQSVSSSLAWYQQKPGQAPRLLIYDASTRATGIPARFSGSGSGTEFTLTISGLQSEDFAVYYCQQYNNWPPWTFGQGTKVEIK
# notes: H4H prefix = human IgG4 Fc
# B3: H4H6251P (antibody, human IgG4, V domains shown)
# VH: B2 VH with R16K, N31R, V40A, V86L, E89D, V93M, Y109F
# VL: B2 VL with S32N, S65T, G77S, V85L, N92D, N93D
# notes: H4H prefix = human IgG4 Fc
# B4: H4H6256P (antibody, human IgG4, V domains shown)
# VH: B2 VH with N31A, V40G, S85R, V86L, Y109H
# VL: B2 VL with S32E, I48L, D50G, G77S, N92S
# notes: H4H prefix = human IgG4 Fc
# B5: H4H6245P (antibody, human IgG4, V domains shown)
# VH: EVQLVESGGGLVQPGGSLRLSCAASGFTFNSFWMSWVRQAPGKGLEWVANIKQDGSEKYYVDSVKGRFTISRDNAKNSVYLQMNSLRAEDTAVYYCARDLVTSFDYWGQGTLVTVSS
# VL: DIQMTQSPSSLSASVGDRVTITCQASQDINNYLNWYQQKPGKAPKLLIYDASYLETGVPSGFSGSGSGTDFTFTISSLQPEDIATYYCQQYDSLPYTFGQGTKLEIK
# notes: H4H prefix = human IgG4 Fc
# B6: H4H6250P (antibody, human IgG4, V domains shown)
# VH: QVQLVESGGGVVQPGRSLRLSCAASGFTFSNYGMHWVRQAPGKGLEWVAVIWYDGSNKYYADSVKGRFTISRDNSRKTLYLQMNSLRAEDTAIYYCTRDDYGDYDYPFDYWGQGTLVTVSS
# VL: DIQMTQSPSSLSASVGDRVTITCRASQGIRNDLGWYQQKPGKAPKRLIYAASSLQSGVPSRFSGTGSGTEFTLTISSLQPEDFATYYCLQHNSYPPFTFGPGTKVDIK
# notes: H4H prefix = human IgG4 Fc
# B7: H4H6246P (antibody, human IgG4, V domains shown)
# VH: B6 VH with N31S, V50I, K58R, K77N, I93V, T97A, D100E
# VL: B6 VL with Y36F, T65S, S93T
# notes: H4H prefix = human IgG4 Fc
# B8: H4H6252P (antibody, human IgG4, V domains shown)
# VH: B6 VH with K43R, Y53F, R76K, K77N, A88S, I93V
# VL: B6 VL with T65S, H91Y, S93T
# notes: H4H prefix = human IgG4 Fc; also called H4H6252S
# Target: T1, human GREM1 (hGREM1-His; SEQ ID NO: 595)
# Experiment: SPR, Biacore T200, 25 C, mAb captured, hGREM1-His injected;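 further: Heparin-supplemented HBS-EP+ used as running buffer, association and dissociation phases followed, Kd computed as koff divided by kon and half-life derived from koff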
Kd [nM],koff [s⁻¹],kon [M⁻¹ s⁻¹],t1/2 [min],Binder
0.669,6.51e-05,97400,177,B1
1.54,7.73e-05,50300,149,B2
23.1,0.000652,28200,18,B3
1.19,0.000107,90000,108,B4
1.51,0.000117,77900,98,B5
3.3,0.000297,90100,39,B6
2.59,0.000192,73900,60,B7
1.02,7.58e-05,74600,152,B8

# Target: T2, recombinant human GREM1 (hGREM1-His; …)
# Experiment: cell-based or functional assay
row,"hGREM1-His Inhibition IC50, M; W-20-17 cell differentiation assay (alkaline phosphatase) [nM]",Binder
1,3.3,B1
2,5.6,B2
3,11,B3
4,5.7,B4
5,6.1,B5
6,12,B6
7,6.2,B7
8,6.1,B8

# Target: T1, human GREM1 (hGREM1-His; SEQ ID NO: 595)
# Experiment: competition ELISA, biotin-hGREM1-His (100 pM) binding to coated hBMP4
# Experimental: Data were analyzed using a sigmoidal dose-response model within Prism™ software. […] The absorbance values of the wells containing the highest concentration for each antibody were used to determine the percent maximum blocking.
% blocked at maximum Ab tested (20 nM) [%],IC50 [nM],Binder
87,< 0.025,B1
62,0.21,B2
62,0.11,B3
75,0.087,B4
96,0.036,B5
42,0.11,B6
62,1.5,B7
53,0.19,B8

# Target: T2, recombinant human GREM1 (hGREM1-His; …)
# Experiment: cell-based or functional assay
# Remark: another data set of the same source
row,"IC50 [M], inhibition of hGREM1-His, W-20-17/BRE-luc luciferase (100 pM hBMP4, 10 nM hGREM1-His) [M]",Binder
1,4.6e-10,B1
2,5.3e-10,B2
3,6.3e-10,B3
4,5.4e-10,B4
5,5.3e-10,B5
6,4.4e-10,B6
7,5.6e-10,B7
8,8.2e-10,B8

# Target: T1, human GREM1 (hGREM1-His; SEQ ID NO: 595)
# Experiment: SPR, Biacore T200, 37 C, mAb captured, hGREM1-His injected;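 further: HBS-EP running buffer containing heparin, association and dissociation phases tracked, KD computed as koff over kon and half-life derived from koff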
# Experimental: Kinetic experiments were carried out using HBS-EP+heparin [10 mM HEPES, 150 mM NaCl, 3 mM EDTA, 0.05% (v/v) surfactant P20, 10 μg/ml heparin sodium salt, pH 7.4] as both the running buffer and the sample buffer. […] Antigen-antibody association was monitored for 150 seconds while dissociation in buffer was monitored for 420 seconds. Kinetic analysis was performed using Scrubber software version 2.0a or Biacore T200 evaluation software v1.0 to determine kₐ and kd values. KD and t_{1/2} were then calculated from the experimentally determined kₐ and kd values as KD=kd/kₐ and t_{1/2}=In(2)/kd.
Kd [nM],koff [s⁻¹],kon [M⁻¹ s⁻¹],t1/2 [min],Binder
1.71,0.000285,166000,41,B1
5.69,0.000487,85500,24,B2
275,0.00694,25300,2,B3
4.08,0.000466,114000,25,B4
2.53,0.000262,103000,44,B5
5.93,0.000882,149000,13,B6
3.5,0.000444,127000,26,B7
4.14,0.000459,111000,25,B8

# Target: T2, recombinant human GREM1 (hGREM1-His; …)
# Experiment: BLI Octet, mAb captured, 100 nM GREM1;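 further: octet Red96 biolayer interferometry at 25 °C in pH 7.4 HEPES saline buffer, antibodies held on anti-human IgG Fc capture biosensors, then exposed to GREM1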
# Experimental: (§1) Binding measurements were conducted using an Octet Red96 label-free biomolecular interaction instrument (ForteBio). All experiments were performed at 25° C. using plate agitation at 1000 rpm. Solutions were made in an aqueous buffer containing 10 mM HEPES, 150 mM NaCl, 3 mM EDTA 0.05% P20, 0.1 mg/mL BSA and adjusted to pH of 7.4 (HBST buffer).
# (§2) Anti-Human IgG Fc Capture biosensors (ForteBio) were separately loaded with 50 μg/mL solutions of 24 different anti-GREM1 antibodies for 60 seconds. Following a 30 second wash, duplicate biosensors for each antibody were submerged into wells containing either 100 nM GREM1 solutions or 100 nM GREM1 solutions containing 5 μM of heparin, measuring association for 300 seconds.
Binding Signal with 30 sec Association [nm],Binding Signal with 300 sec Association [nm],Binder
0.24,0.42,B1
0.21,0.42,B2
0.27,0.45,B3
0.2,0.4,B4
0.23,0.41,B5
0.2,0.37,B6
0.19,0.38,B7
0.23,0.44,B8

# Target: T2, recombinant human GREM1 (hGREM1-His; …)
# Experiment: BLI Octet, mAb captured, 100 nM GREM1 + 5 uM heparin;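 further: octet Red96 biolayer interferometry at 25 °C, antibodies captured on anti-human IgG Fc biosensors, pH 7.4 HEPES buffer with 0.1 mg/mL BSA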
# Experimental: as §1, §2
Binding Signal with 30 sec Association [nm],Binding Signal with 300 sec Association [nm],Binder
0.07,0.37,B1
0.04,0.37,B2
0.03,0.36,B3
0.07,0.38,B4
0.02,0.22,B5
0.06,0.32,B6
0.06,0.34,B7
0.04,0.35,B8

# Target: T2, recombinant human GREM1 (hGREM1-His; …)
# Experiment: BLI Octet, mAb captured, 100 nM GREM1 without vs with 5 uM heparin;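 further: octet Red96 biolayer interferometry at 25 °C, antibodies captured on anti-human IgG Fc biosensors, association of GREM1 measured with versus without heparin in HEPES-buffered saline, pH 7.4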
# Experimental: as §1, §2
Reduction in Signal from Heparin at 30 sec [nm],Reduction in Signal from Heparin at 300 sec [nm],Binder
0.17,0.05,B1
0.17,0.05,B2
0.24,0.09,B3
0.13,0.02,B4
0.21,0.19,B5
0.14,0.05,B6
0.13,0.04,B7
0.19,0.09,B8
